Consider 83 variants from the RNAGym collection of RNA variant scans (doi:10.1073/pnas.2313332121).

B1: TPR 5TU (parent)
chain: GGAUCUUCUCGAUCUAACAAAAAAGACAAAUCUGCCACAAAGCUUGAGAGCAUCUUCGGAUGCAGAGGCGGCAGCCUUCGGUGGCGCGAUAGCGCCAACGUUCUCAACUAUGACACGCAAAACGCGUGCUCCGUUGAAUGGAGUUUAUCAUG

This sample holds only a part of the variants without activity. A value given as a limit tells only on which side of the number the result lay.

Variants of B1 are the subject of the data set. As to the kind of experiment: polymerase ribozyme fitness, log enrichment relative to wild type (log ratio); higher = more active; in vitro selection for triplet polymerase activity. In a few lines:
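PCR was used to build mutant libraries for each subunit of a heterodimeric triplet polymerase ribozyme, which were then transcribed. A single in vitro selection round, in triplicate, used a frozen incubation at −7 °C and recovered extended constructs by gel excision, streptavidin beads and RT-PCR. Fitness is the logarithm of genotype enrichment relative to wild-type enrichment, averaged over replicates with inverse-variance weights. The logarithm is base 2, and after Illumina sequencing only genotypes with ≥10 input reads and ≥1 read per output were kept.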
As to U13G C14G A30C G80A A137U, the “polymerase ribozyme fitness (log ratio)” value is no more than -4.2.

In the case of A28U G133U A137C, the “polymerase ribozyme fitness (log ratio)” value was no more than -4.2.

In the case of A22C G86A, the “polymerase ribozyme fitness (log ratio)” value was -1.57.

As to A22U C54A G59C A122C G141A, the “polymerase ribozyme fitness (log ratio)” value was -0.175.

In the case of U56A G81U C93G, the “polymerase ribozyme fitness (log ratio)” value is -3.18.

A29C U31G C95A A119G A142C G152U: the “polymerase ribozyme fitness (log ratio)” value is no more than -4.2.

Consider A23U A28G C87U U145A, for which the “polymerase ribozyme fitness (log ratio)” value is no more than -4.2.

For the variant A41G G50C, the “polymerase ribozyme fitness (log ratio)” value was -1.47.

On to C108U, for which the “polymerase ribozyme fitness (log ratio)” value is -2.43.

For the variant G11U C32A C54U C57U G92C U148G U151G, the “polymerase ribozyme fitness (log ratio)” value is no more than -4.2.

Take A47U U148C: the “polymerase ribozyme fitness (log ratio)” value was -2.46.

A20G C36U C85G: the “polymerase ribozyme fitness (log ratio)” value was -4.17.

Turning to U7G C18U A30U G59U U77A G83C A138C, the “polymerase ribozyme fitness (log ratio)” value is no more than -4.2.

In the case of A49C C76G C95U C114A G143U, the “polymerase ribozyme fitness (log ratio)” value was no more than -4.2.

Turning to A22G C85A, the “polymerase ribozyme fitness (log ratio)” value is -1.12.

U6G A52C C96G A115G: the “polymerase ribozyme fitness (log ratio)” value is -3.74.

With A12C A29C G81U C87A, the “polymerase ribozyme fitness (log ratio)” value is no more than -4.2.

With A17U C85U, the “polymerase ribozyme fitness (log ratio)” value was -1.68.

Turning to C8A, the “polymerase ribozyme fitness (log ratio)” value is -2.84.

On to C85U A122U, for which the “polymerase ribozyme fitness (log ratio)” value is -0.795.

As for U13C U56A C72U C93A C96U, the “polymerase ribozyme fitness (log ratio)” value is -3.76.

Take U55A A120U: the “polymerase ribozyme fitness (log ratio)” value is -0.857.

Turning to C54A C95A, the “polymerase ribozyme fitness (log ratio)” value was -1.25.

Take U13A C54A G84U G88U: the “polymerase ribozyme fitness (log ratio)” value was no more than -4.2.

For C32G C76A C99A, the “polymerase ribozyme fitness (log ratio)” value is -4.15.

As to A3U A30C C36A A60U G84A C85A G140C U146C, the “polymerase ribozyme fitness (log ratio)” value is no more than -4.2.

Take G84A U109G C114G U135G: the “polymerase ribozyme fitness (log ratio)” value is no more than -4.2.

For A21G G46U U55A U151G, the “polymerase ribozyme fitness (log ratio)” value is no more than -4.2.

Take C85G A107G: the “polymerase ribozyme fitness (log ratio)” value was no more than -4.2.

Consider G50C G86A U102A G143U, for which the “polymerase ribozyme fitness (log ratio)” value was no more than -4.2.

Take A3G U6A U33G G50A C79U C129A: the “polymerase ribozyme fitness (log ratio)” value is no more than -4.2.

Regarding U56A G84A A91G, the “polymerase ribozyme fitness (log ratio)” value is -3.59.

In the case of G25A U44G U77A G83U U104A, the “polymerase ribozyme fitness (log ratio)” value is no more than -4.2.

For G59C C76A U78C C87A G94C C96U G100A U144A, the “polymerase ribozyme fitness (log ratio)” value was no more than -4.2.

With G59A C87U A137U, the “polymerase ribozyme fitness (log ratio)” value was no more than -4.2.

Take U6C G50C G59A G68U A137C: the “polymerase ribozyme fitness (log ratio)” value is no more than -4.2.

Consider G80C A115U, for which the “polymerase ribozyme fitness (log ratio)” value is no more than -4.2.

In the case of C27A A52G C95A C129G G140U A142U, the “polymerase ribozyme fitness (log ratio)” value was no more than -4.2.

For the variant U44A U45A A47C G86A U130G, the “polymerase ribozyme fitness (log ratio)” value was no more than -4.2.

Take C35G C38A C69U G84U: the “polymerase ribozyme fitness (log ratio)” value is no more than -4.2.

With G50C G59C, the “polymerase ribozyme fitness (log ratio)” value is -3.38.

For A120G, the “polymerase ribozyme fitness (log ratio)” value is 0.00404.

For C76A C85A C95A A120G, the “polymerase ribozyme fitness (log ratio)” value is -2.33.

On to A16U C54A A60C A73C G86A A89C A119G G126U, for which the “polymerase ribozyme fitness (log ratio)” value was no more than -4.2.

With U45A G83A A121U G141C U148G, the “polymerase ribozyme fitness (log ratio)” value is no more than -4.2.

For C8A A19U G48C U56A C93U G140A A142G A150C, the “polymerase ribozyme fitness (log ratio)” value was no more than -4.2.

As for C27U G128A, the “polymerase ribozyme fitness (log ratio)” value is -4.04.

Regarding C54U A97G C99G U135G, the “polymerase ribozyme fitness (log ratio)” value was -3.75.

In the case of U44G U55A C93A A120G, the “polymerase ribozyme fitness (log ratio)” value is no more than -4.2.

Take G50A G71A C95U U139A: the “polymerase ribozyme fitness (log ratio)” value is no more than -4.2.

For the variant G50A U144A, the “polymerase ribozyme fitness (log ratio)” value was -1.6.

With A17G C85U, the “polymerase ribozyme fitness (log ratio)” value is -1.27.

As to A3G C57A U90A A91C C93U G94C C132U G140U A142U, the “polymerase ribozyme fitness (log ratio)” value is no more than -4.2.

In the case of A19U A91G, the “polymerase ribozyme fitness (log ratio)” value was -2.85.

For G25A U31A C51U G81C G84U G152U, the “polymerase ribozyme fitness (log ratio)” value was no more than -4.2.

C51U C57A C63U G65C: the “polymerase ribozyme fitness (log ratio)” value was no more than -4.2.

For C27G A49G A66C, the “polymerase ribozyme fitness (log ratio)” value was no more than -4.2.

Regarding A19U G92U U102A U146C, the “polymerase ribozyme fitness (log ratio)” value is -2.35.

U82A C93U A110G: the “polymerase ribozyme fitness (log ratio)” value is -4.09.

Consider A60C G67U C76A C96U A107G C125U, for which the “polymerase ribozyme fitness (log ratio)” value was no more than -4.2.

A47G C51U C75U C96A C103U A138G A147C: the “polymerase ribozyme fitness (log ratio)” value is no more than -4.2.

For C35U A97U, the “polymerase ribozyme fitness (log ratio)” value is -2.26.

Take G50A C54U: the “polymerase ribozyme fitness (log ratio)” value was -1.32.

U53A A91C C96U: the “polymerase ribozyme fitness (log ratio)” value was no more than -4.2.

In the case of G42U C57G G58A C85G, the “polymerase ribozyme fitness (log ratio)” value is no more than -4.2.

Consider C35G C95G, for which the “polymerase ribozyme fitness (log ratio)” value was -4.19.

With C18U C36A C38A U55A G84U, the “polymerase ribozyme fitness (log ratio)” value was no more than -4.2.

Take G84A U101G: the “polymerase ribozyme fitness (log ratio)” value was -0.429.

In the case of G11C G46U U55A C87U C93U U127G A138C U145A, the “polymerase ribozyme fitness (log ratio)” value is no more than -4.2.

As to G59U G88U G94U U102G A147G, the “polymerase ribozyme fitness (log ratio)” value was no more than -4.2.

As for A52G G65A G68U G92U C103U A119U U139C, the “polymerase ribozyme fitness (log ratio)” value is no more than -4.2.

In the case of G50A A142U, the “polymerase ribozyme fitness (log ratio)” value is -2.45.

Turning to G11A U45A G46C G80C C87A, the “polymerase ribozyme fitness (log ratio)” value was no more than -4.2.

Regarding U45G U61A, the “polymerase ribozyme fitness (log ratio)” value is -2.35.

As to C14U A66U U78C, the “polymerase ribozyme fitness (log ratio)” value was no more than -4.2.

A29C C108A A142U: the “polymerase ribozyme fitness (log ratio)” value was no more than -4.2.

On to C76U C85G C125U U139G, for which the “polymerase ribozyme fitness (log ratio)” value was no more than -4.2.

Take A17U C51U C95U C103A: the “polymerase ribozyme fitness (log ratio)” value was -1.47.

C93G C123U G140U: the “polymerase ribozyme fitness (log ratio)” value was -4.17.

For C38U C57U A106U U146G, the “polymerase ribozyme fitness (log ratio)” value is -2.36.

For C10U A23G U82G C95A, the “polymerase ribozyme fitness (log ratio)” value was no more than -4.2.

As for A23C C35A C87A, the “polymerase ribozyme fitness (log ratio)” value is -4.05.

Consider C51A U82G A115U, for which the “polymerase ribozyme fitness (log ratio)” value is -3.17.
